Results taken from patent publication US20030207263A1, “Method of screening therapeutic agents” (priority 1998, published 2003).

Legend:
[1] = system: CAGA box reporter vector in HepG2 cells
Description: (§2) FIG. 1C: HepG2 and Mv1Lu cells were transfected with p3TP-Lux or a vector containing nine or twelve copies of the CAGA box upstream of the minimal Adenovirus Major Late Promoter (MLP). Fold inductions by TGFβ are given for HepG2 cells.
(§3) FIG. 3B: HepG2 cells were transfected with a (CAGA)12-MLP-Luc reporter construct and induced by BMP-7, activin or TGFβ (respectively 100 ng/mL, 20 ng/mL and 10 ng/mL).
(§4) HepG2 and MDA-MB468 cells were transiently transfected, with the indicated constructs and the internal control pRL-TK vector, using the calcium phosphate co-precipitation method. When increasing amounts of expression vectors were transfected, total DNA was kept constant by addition of pCMV5. Cells were serum starved for 8 h before stimulation with 7 ng/mL of human recombinant TGFβ1 (R&D) and luciferases activities were quantified 14 h later using the Dual Luciferase Assay (Promega). For activin and BMP-7 (Creative Biomolecules) induction, respectively 20 ng/mL and 100 ng/mL were used. Values were normalized with the renilla luciferase activity expressed from pRL-TK. […] Luciferase values shown in figures are representative of transfection experiments done at least three times.

[2] = system: renilla luciferase driven by the RSV LTR, clone 1613; assay: Renilla luciferase specificity/toxicity control (pRc/Renilla), clone 1613; conditions: for relative renilla luciferase activities (fold induction): value 1 = absence of TGFβ
Description: (§1) The expression of this transgene should not be regulated by TGFβ or activin, i.e. it should not contain CAGA sequences in its regulatory regions. For instance, the renilla-luciferase gene can be transcribed from the RSV (Rous Sarcoma Virus) promoter or SV (Simian Virus 40) promoter. […] This means that an agent acting specifically through CAGA boxes-mediated transcription will have an effect on the firefly luciferase activity but not on the renilla luciferase activity.

[3] = system: human PAI-1 promoter (PAI-1-Luc, clone 1613); assay: Human PAI-1-Luc firefly luciferase reporter, stable clone 1613; conditions: for relative firefly luciferase activities (fold induction): value 1 = absence of TGFβ
Description: (§5) Thus, the renilla luciferase activity can be used as an internal toxicity control.
(§6) At day 1, 40 (96 well-) microplates are seeded, using a multidrop apparatus, with CAGA-reporter cells (i.e F89 or 1613) at a concentration of 35000 cells per well in 200 μl of serum-containing medium.
(§7) 8 to 24 hours later (Day 2), microplates containing the chemical compounds to be tested, diluted in 100% DMSO, are placed in a carousel and the cell-incubation procedure is launched. The computer system coordinates then the actions of different peripheric equipments in order to incubate the cells in the presence of TGFβ with the coumpounds to be tested.
(§8) Cells and compounds microplates are moved through the robotic line to the adequate peripheries by the axial rotatable arm. Cells are washed and incubated in a serum-free medium. The pippetage station realizes different operations including preliminary dilutions in order to incubate the cells with TGFβ and the chemical compounds to be tested. The final concentration of TGFβ (rhTGFβ-1 from R & D) used in the test is 1 ng/mL and the compounds are tested at a final concentration of 10 μl in a final concentration of DMSO of 1%. Cells are incubated with the compounds to be tested 15-30 mn prior the addition of TGFβ. The final volume of the test reaction is 150 μl. Wells A1 through H10 are the test wells and contain cells incubated with the chemical agents to be tested in the presence of TGFβ. Each well contains only one singular chemical compound and allows to test its effect on CAGA-mediated transcription. Columns 11 and 12 are kept for controls. Column 11 contains 8 wells where cells are incubated in the presence of TGFβ without chemical compounds. Column 11 determines of the reference TGFβ-induced firefly luciferase value to which will be compared the values measured in the test wells to identify potential inhibitor or activator coumpounds. In wells A12 to D12, cells are grown in medium without TGFβ. The firefly luciferase value obtained with these points represents the ‘basal firefly luciferase activity’ and allows to control that the TGFβ induction is correct. In wells E12 to H12, cells are incubated in the presence of TGFβ with 500 μM CPO (Cyclopentenone, Sigma) which is a cell toxic compound. […] These points allows to control that the test is sensitive to toxic compounds.
(§9) 12 to 18 hours later (day 3), the luciferase quantification procedure is launched. The following reactions are realized using reagents of the Dual Luciferase Assay Kit from Promega. Cells are washed and lysed with the addition of 10 μl of passive lysis buffer (Promega). After 15 to 30 mn of agitation, luciferase activities of the plates are read in a dual-injector luminometer (BMG lumistar).

[4] = system: renilla luciferase driven by the RSV LTR, clone F89; assay: Renilla luciferase specificity/toxicity control (pRc/Renilla), clone F89; conditions: for relative renilla luciferase activities (fold induction): value 1 = absence of TGFβ
Description: as §1

[5] = system: CAGA box-mediated transcription ((CAGA)9MLP-Luc, clone F89); assay: TGFβ-responsive (CAGA)9MLP-Luc firefly luciferase reporter, stable clone F89; conditions: for relative firefly luciferase activities (fold induction): value 1 = absence of TGFβ
Description: as §5, §6, §7, §8, §9

[6] = system: CAGA box reporter vector in HepG2 cells; assay: Transient CAGA boxes-MLP-Luc reporter in HepG2 cells; conditions: (CAGA)12-MLP-Luc, TGFβ 10 ng/mL
Description: as §2, §3, §4

[7] = system: CAGA-reporter cells (i.e F89 or 1613); assay: Toxic-compound control wells of the automated high throughput transcriptional screen; format: cell-based, human; conditions: 500 μM CPO in the presence of TGFβ

## TGFβ: human recombinant TGFβ1 (R&D), cytokine used to induce CAGA box-mediated transcription
[1]
  TGFβ-mediated fold induction: Several hundred
[2]; TGFβ 0.2 ng/mL
  relative renilla luciferase activities (fold induction): 0.8 fold induction
[2]; TGFβ 1 ng/mL
  relative renilla luciferase activities (fold induction): 1 fold induction
[2]; TGFβ 5 ng/mL
  relative renilla luciferase activities (fold induction): 1 fold induction
[2]; TGFβ 10 ng/mL
  relative renilla luciferase activities (fold induction): 1.3 fold induction
[3]; TGFβ 0.2 ng/mL
  relative firefly luciferase activities (fold induction): 8 fold induction
[3]; TGFβ 1 ng/mL
  relative firefly luciferase activities (fold induction): 26.2 fold induction
[3]; TGFβ 5 ng/mL
  relative firefly luciferase activities (fold induction): 43.5 fold induction
[3]; TGFβ 10 ng/mL
  relative firefly luciferase activities (fold induction): 50.1 fold induction
[4]; TGFβ 0.2 ng/mL
  relative renilla luciferase activities (fold induction): 1.1 fold induction
[4]; TGFβ 0.5 ng/mL
  relative renilla luciferase activities (fold induction): 1.1 fold induction
[4]; TGFβ 1 ng/mL
  relative renilla luciferase activities (fold induction): 1.2 fold induction
[4]; TGFβ 5 ng/mL
  relative renilla luciferase activities (fold induction): 1.5 fold induction
[4]; TGFβ 10 ng/mL
  relative renilla luciferase activities (fold induction): 1.8 fold induction
[5]; TGFβ 0.2 ng/mL
  relative firefly luciferase activities (fold induction): 6 fold induction
[5]; TGFβ 0.5 ng/mL
  relative firefly luciferase activities (fold induction): 31 fold induction
[5]; TGFβ 1 ng/mL
  relative firefly luciferase activities (fold induction): 109 fold induction
[5]; TGFβ 5 ng/mL
  relative firefly luciferase activities (fold induction): 461 fold induction
[5]; TGFβ 10 ng/mL
  relative firefly luciferase activities (fold induction): 737 fold induction
[6]
  fold induction of CAGA boxes containing reporter: 200 fold

## CCOc1cc(/C=C(\C#N)C(N)=O)cc(CSc2ccccc2)c1O [Compound A, α-cyano4-hydroxy-3-ethoxy-5-phenylthiomethyl cinnamamide]
[2]; specificity/toxicity control
  inhibitory effect on the renilla luciferase activities: not on the renilla luciferase activities
[3]; compound A 0.1 μM
  firefly luciferase activity (value 100 = absence of compound A, 1 ng/mL TGFβ): 105
[3]; compound A 1 μM
  firefly luciferase activity (value 100 = absence of compound A, 1 ng/mL TGFβ): 102
[3]; compound A 5 μM
  firefly luciferase activity (value 100 = absence of compound A, 1 ng/mL TGFβ): 65
[3]; compound A 10 μM
  firefly luciferase activity (value 100 = absence of compound A, 1 ng/mL TGFβ): 36
[4]; specificity/toxicity control
  inhibitory effect on the renilla luciferase activities: not on the renilla luciferase activities
[5]; compound A 0.1 μM
  firefly luciferase activity (value 100 = absence of compound A, 1 ng/mL TGFβ): 98
[5]; compound A 1 μM
  firefly luciferase activity (value 100 = absence of compound A, 1 ng/mL TGFβ): 95
[5]; compound A 5 μM
  firefly luciferase activity (value 100 = absence of compound A, 1 ng/mL TGFβ): 86
[5]; compound A 10 μM
  firefly luciferase activity (value 100 = absence of compound A, 1 ng/mL TGFβ): 23

## O=C1C=CCC1 [CPO, Cyclopentenone]
[7]
  firefly luciferase activity relative to TGFβ-only wells: around 50%
  renilla luciferase activity relative to TGFβ-only wells: around 50%
